These results are taken from US20180346588A1.

In the experiment the target is human mesothelin (MSLN) on the cell surface (human) (UniProt Q13421). Description: FACS on MiaPaCa-MSLN #2 cells, upper histogram and table.
Sequence of human mesothelin (MSLN) on the cell surface (human) (Q13421 other isoform, or with tags, fused parts or gaps limits assumed): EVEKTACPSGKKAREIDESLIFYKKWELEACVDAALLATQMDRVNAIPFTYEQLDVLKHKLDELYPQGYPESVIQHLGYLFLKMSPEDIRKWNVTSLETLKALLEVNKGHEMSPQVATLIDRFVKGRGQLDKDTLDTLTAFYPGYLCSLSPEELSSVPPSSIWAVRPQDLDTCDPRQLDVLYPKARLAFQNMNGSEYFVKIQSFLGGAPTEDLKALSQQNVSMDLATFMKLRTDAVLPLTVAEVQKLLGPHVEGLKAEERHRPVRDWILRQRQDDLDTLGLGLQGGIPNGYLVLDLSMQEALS

B1: BAY94-9343 (antibody, INN chains, looked up, V domains shown)
VH: QVELVQSGAEVKKPGESLKISCKGSGYSFTSYWIGWVRQAPGKGLEWMGIIDPGDSRTRYSPSFQGQVTISADKSISTAYLQWSSLKASDTAMYYCARGQLYGGTYMDGWGQGTLVTVSS
VL: DIALTQPASVSGSPGQSITISCTGTSSDIGGYNSVSWYQQHPGKAPKLMIYGVNNRPSGVSNRFSGSKSGNTASLTISGLQAEDEADYYCSSYDIESATPVFGGGTKLTVL
modifications: ravtansine (DM4) payload
B1 showed a Mean, FL2-H of 2710.
